Assay results: US20260199463A1 (CENTURY THERAPEUTICS, published 2026)

T1: Nectin4-HIS protein (AcroBiosystems #NE4-H52H3) (UniProt Q96NY8 32-349)
T1 construct: Bought protein; also called Nectin4 protein; recombinant Nectin4-HIS protein; not shown: His tag
T1 sequence (looked up): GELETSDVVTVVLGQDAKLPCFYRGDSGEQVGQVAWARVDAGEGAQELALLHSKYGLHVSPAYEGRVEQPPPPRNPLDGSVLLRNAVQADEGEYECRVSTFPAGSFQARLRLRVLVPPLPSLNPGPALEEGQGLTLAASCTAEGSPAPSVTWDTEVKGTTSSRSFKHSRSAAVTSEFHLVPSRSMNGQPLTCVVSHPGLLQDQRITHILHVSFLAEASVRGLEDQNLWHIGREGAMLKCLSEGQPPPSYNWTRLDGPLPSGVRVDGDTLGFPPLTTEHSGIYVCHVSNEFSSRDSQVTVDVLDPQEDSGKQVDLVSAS


Key:
[1] = target: T1, Nectin4-HIS protein (AcroBiosystems …); experiment: ELISA, periplasmic extract on plate-bound Nectin4 (1 ug/mL), anti-Flag:HRP detection
Experimental: ELISA: 8 Maxisorp plates were coated with 100 uL/well Nectin4 at 1 ug/mL overnight at 4° C. Plates were emptied, and 200 uL/well SuperBlock was added to all plates, and incubated for 1 hour at RT. The plate was washed 1× with TBST on the Aquamax plate washer. 60 μL of anti-Flag:HRP (1:10,000 in PBS-T with 1:10 Superblock) was added per well to a V-bottom plate for each library screening plate. 60 uL/well PPE was added per well to the V-bottom plates and incubated for 1 hour at RT. 50 μL of the PPE/Anti-Flag mix was transferred to each ELISA plate and incubated for 1 hour at RT. The plate was washed 3× with TBST on the Aquamax plate washer. 50 uL/well TMB Ultra solution was added and incubated at RT for 30 minutes, until the wells appeared blue. 50 uL/well stop solution was added and absorbance at 450 nm was read on the Spectramax i3× plate reader. 54 unique clones were identified from the two libraries. A subset of 20 clones was selected from V2S and V2 M for cloning into P201 (SEQ ID Nos. 111-130).

[2] = target: T1, Nectin4-HIS protein (AcroBiosystems …); experiment: flow cytometry, Nectin4-HIS at 2 ug/ml on CAR-transduced Nurkat cells

Binder	binding result [1]	binding result [2]
NEC_S_31 (VHH, Periplasmic extract (PPE) of a panning clone) VHH: EVQLLESGGGLVQPGGSLRLSCAASGFTYSSYAMGWYRQAPGKERELVSSISGSGGSTRYADSVKGRFTISRDNSKNTLYLQMNSLKPEDTAVYYCAVAIGVGDYWGQGTQVTVSS	binds	
MARS SP_NEC_M_46_P3110_CD8 Hinge_CD28 tm_41BB_CD3Z (other, Chimeric antigen receptor on transduced Nurkat cells or primary T cells) EVQLLESGGGLVQPGGSLRLSCAASGYTFSDYAMGWYRQAPGKERELVSSISGSGGSTRYADSVKGRFTISRDNSKNTLYLQMNSLKPEDTAVYYCAAVIRQPSTGFYEYWGQGTQVTVSSTTTPAPRPPTPAPTIASQPLSLRPEACRPAAGGAVHTRGLDFACDFWVLVVVGGVLACYSLLVTVAFIIFWVKRGRKKLLYIFKQPFMRPVQTTQEEDGCSCRFPEEEEGGCELRVKFSRSADAPAYQQGQNQLYNELNLGRREEYDVLDKRRGRDPEMGGKPRRKNPQEGLYNELQKDKMAEAYSEIGMKGERRRGKGHDGLYQGLSTATKDTYDALHMQALPPR		binds
NEC_S_2 (VHH, Periplasmic extract (PPE) of a panning clone) VHH: EVQLLESGGGLVQPGGSLRLSCAASGSTFSSNAMGWYRQAPGKERELVSSISGSGGSTRYADSVKGRFTISRDNSKNTLYLQMNSLKPEDTAVYYCASYVLYLREYWGQGTQVTVSS	binds	
MARS SP_NEC_M_8_P3107_CD8 Hinge_CD28 tm_41BB_CD3Z (other, Chimeric antigen receptor on transduced Nurkat cells or primary T cells) EVQLLESGGGLVQPGGSLRLSCAASGFTFSSYAMGWYRQAPGKEREFVSSISGSGGLTRYADSVKGRFTISRDNSKNTLYLQMNSLKPEDTAVYYCAVTTGYQGGVYDYWGQGTQVTVSSTTTPAPRPPTPAPTIASQPLSLRPEACRPAAGGAVHTRGLDFACDFWVLVVVGGVLACYSLLVTVAFIIFWVKRGRKKLLYIFKQPFMRPVQTTQEEDGCSCRFPEEEEGGCELRVKFSRSADAPAYQQGQNQLYNELNLGRREEYDVLDKRRGRDPEMGGKPRRKNPQEGLYNELQKDKMAEAYSEIGMKGERRRGKGHDGLYQGLSTATKDTYDALHMQALPPR		binds
NEC_M_8 (VHH, Periplasmic extract (PPE) of a panning clone) VHH: EVQLLESGGGLVQPGGSLRLSCAASGFTFSSYAMGWYRQAPGKEREFVSSISGSGGLTRYADSVKGRFTISRDNSKNTLYLQMNSLKPEDTAVYYCAVTTGYQGGVYDYWGQGTQVTVSS	binds	
NEC_M_17 (VHH, Periplasmic extract (PPE) of a panning clone) VHH: EVQLLESGGGLVQPGGSLRLSCAASGFTYSGYAMGWYRQAPGKERELVSSISGSGTLTSYADSVKGRFTISRDNSKNTLYLQMNSLKPEDTAVYYCDVDIPVGDATTVGDYWGQGTQVTVSS	binds	
NEC_S_55 (VHH, Periplasmic extract (PPE) of a panning clone) VHH: EVQLLESGGGLVQPGGSLRLSCAASGFTLSSYAMGWYRQAPGKERELVSSISGSGGSTRYADSVKGRFTISRDNSKNTLYLQMNSLKPEDTAVYYCAAYIGGDYLGQGTQVTVSS	binds	
NEC_M_84 (VHH, Periplasmic extract (PPE) of a panning clone) VHH: EVQLLESGGGLVQPGGSLRLSCAASGFAFSIDAMGWYRQAPGKEREGVSSISGSGGLTRYADSVKGRFTISRDNSKNTLYLQMNSLKPEDTAVYYCDTAVLTGYSEAFDYWGQGTQVTVSS	binds	
NEC_M_21 (VHH, Periplasmic extract (PPE) of a panning clone) VHH: EVQLLESGGGLVQPGGSLRLSCAASGLTFSSNAMGWYRQAPGKERELVSSISGSGGSTNYADSVKGRFTISRDNSKNTLYLQMNSLKPEDTAVYYCAAEIATYYDFADYWGQGTQVTVSS	binds	
NEC_S_16 (VHH, Periplasmic extract (PPE) of a panning clone) VHH: EVQLLESGGGLVQPGGSLRLSCAASGFTFSDYYMGWYRQAPGKEREFVSAISSTGGSPYYADSVKGRFTISRDNSKNTLYLQMNSLKPEDTAVYYCAVEVPYDYWGQGTQVTVSS	binds	
NEC_S_64 (VHH, Periplasmic extract (PPE) of a panning clone) VHH: EVQLLESGGGLVQPGGSLRLSCAASGFAYSSYYMGWYRQAPGKEREFVSAISSSGGGTYYADSVKGRFTISRDNSKNTLYLQMNSLKPEDTAVYYCAVELTYNYWGQGTQVTVSS	binds	
NEC_M_66 (VHH, Periplasmic extract (PPE) of a panning clone) VHH: EVQLLESGGGLVQPGGSLRLSCAASGFAYSSYSIGWYRQAPGKERELVSAISGSGGSSRYADSVKGRFTISRDNSKNTLYLQMNSLKPEDTAVYYCAAIAYVYTSTARNYWGQGTQVTVSS	binds	

Next, values leading:

binding result [1]	binding result [2]	Binder
binds		NEC_S_56 (VHH, Periplasmic extract (PPE) of a panning clone) VHH: EVQLLESGGGLVQPGGSLRLSCAASGLTLSSYAMGWFRQAPGKERELVSSISGSGGSTRYADSVKGRFTISRDNSKNTLYLQMNSLKPEDTAVYYCAVDIRLTDYWGQGTQVTVSS
binds		NEC_M_29 (VHH, Periplasmic extract (PPE) of a panning clone) VHH: EVQLLESGGGLVQPGGSLRLSCAASGFTYTSYVMGWYRQAPGKERELVSAIYGSAGSGYYADSVKGRFTISRDNSKNTLYLQMNSLKPEDTAVYYCARVTTTTHLWSAEYWGQGTQVTVSS
	binds	MARS SP_NEC_M_5_P3106_CD8 Hinge_CD28 tm_41BB_CD3Z (other, Chimeric antigen receptor on transduced Nurkat cells or primary T cells) EVQLLESGGGLVQPGGSLRLSCAASGLSFSSYSMGWYRQAPGKEREFVSAISGSSGSTNYADSVKGRFTISRDNSKNTLYLQMNSLKPEDTAVYYCAAEHRVTTSGVFYDYWGQGTQVTVSSTTTPAPRPPTPAPTIASQPLSLRPEACRPAAGGAVHTRGLDFACDFWVLVVVGGVLACYSLLVTVAFIIFWVKRGRKKLLYIFKQPFMRPVQTTQEEDGCSCRFPEEEEGGCELRVKFSRSADAPAYQQGQNQLYNELNLGRREEYDVLDKRRGRDPEMGGKPRRKNPQEGLYNELQKDKMAEAYSEIGMKGERRRGKGHDGLYQGLSTATKDTYDALHMQALPPR
binds		NEC_M_46 (VHH, Periplasmic extract (PPE) of a panning clone) VHH: EVQLLESGGGLVQPGGSLRLSCAASGYTFSDYAMGWYRQAPGKERELVSSISGSGGSTRYADSVKGRFTISRDNSKNTLYLQMNSLKPEDTAVYYCAAVIRQPSTGFYEYWGQGTQVTVSS
binds		NEC_S_5 (VHH, Periplasmic extract (PPE) of a panning clone) VHH: EVQLLESGGGLVQPGGSLRLSCAASGLTFRYNAMGWYRQAPGKEREFVSAISGSGGGTYYADSVKGRFTISRDNSKNTLYLQMNSLKPEDTAVYYCAAEGLYDYWGQGTQVTVSS
	binds	MARS SP_NEC_M_44_P3109_CD8 Hinge_CD28 tm_41BB_CD3Z (other, Chimeric antigen receptor on transduced Nurkat cells or primary T cells) EVQLLESGGGLVQPGGSLRLSCAASGRTLSSYAMGWYRQAPGKERELVSSISGSGGSTRYADSVKGRFTISRDNSKNTLYLQMNSLKPEDTAVYYCAVYILELAPGAEYWGQGTQVTVSSTTTPAPRPPTPAPTIASQPLSLRPEACRPAAGGAVHTRGLDFACDFWVLVVVGGVLACYSLLVTVAFIIFWVKRGRKKLLYIFKQPFMRPVQTTQEEDGCSCRFPEEEEGGCELRVKFSRSADAPAYQQGQNQLYNELNLGRREEYDVLDKRRGRDPEMGGKPRRKNPQEGLYNELQKDKMAEAYSEIGMKGERRRGKGHDGLYQGLSTATKDTYDALHMQALPPR
binds		NEC_S_11 (VHH, Periplasmic extract (PPE) of a panning clone) VHH: EVQLLESGGGLVQPGGSLRLSCAASGLTSSGYAMGWYRQAPGKERELVSSISSSGGLTHYADSVKGRFTISRDNSKNTLYLQMNSLKPEDTAVYYCDADIAYTGADYWGQGTQVTVSS
binds		NEC_M_44 (VHH, Periplasmic extract (PPE) of a panning clone) VHH: EVQLLESGGGLVQPGGSLRLSCAASGRTLSSYAMGWYRQAPGKERELVSSISGSGGSTRYADSVKGRFTISRDNSKNTLYLQMNSLKPEDTAVYYCAVYILELAPGAEYWGQGTQVTVSS
binds		NEC_M_5 (VHH, Periplasmic extract (PPE) of a panning clone) VHH: EVQLLESGGGLVQPGGSLRLSCAASGLSFSSYSMGWYRQAPGKEREFVSAISGSSGSTNYADSVKGRFTISRDNSKNTLYLQMNSLKPEDTAVYYCAAEHRVTTSGVFYDYWGQGTQVTVSS
	binds	MARS SP_NEC_S_31_P3113_CD8 Hinge_CD28 tm_41BB_CD3Z (other, Chimeric antigen receptor on transduced Nurkat cells or primary T cells) EVQLLESGGGLVQPGGSLRLSCAASGFTYSSYAMGWYRQAPGKERELVSSISGSGGSTRYADSVKGRFTISRDNSKNTLYLQMNSLKPEDTAVYYCAVAIGVGDYWGQGTQVTVSSTTTPAPRPPTPAPTIASQPLSLRPEACRPAAGGAVHTRGLDFACDFWVLVVVGGVLACYSLLVTVAFIIFWVKRGRKKLLYIFKQPFMRPVQTTQEEDGCSCRFPEEEEGGCELRVKFSRSADAPAYQQGQNQLYNELNLGRREEYDVLDKRRGRDPEMGGKPRRKNPQEGLYNELQKDKMAEAYSEIGMKGERRRGKGHDGLYQGLSTATKDTYDALHMQALPPR
binds		NEC_M_82 (VHH, Periplasmic extract (PPE) of a panning clone) VHH: EVQLLESGGGLVQPGGSLRLSCAASGFTYSDYAMGWYRQAPGKERELVSAISSYGGVTNYADSVKGRFTISRDNSKNTLYLQMNSLKPEDTAVYYCAAYGALSIRGYDYWGQGTQVTVSS
